Source: patent US20210030857A1 (NGM BIOPHARMACEUTICALS, published 2021)
Where “and” joins values, the source holds several entries; their conditions need not be identical. Equal entries are not always repeated.

Experiments:
[1] = target: T1, human beta klotho / human FGFR1c receptor complex on cells (human, UniProt Q86Z14 1-1044; P11362 22-822); test: cell-based or functional assay
[2] = target: cynomolgus beta klotho / human FGFR1c receptor complex on cells (cynomolgus monkey (Macaca …)); test: cell-based or functional assay
[3] = target: T1, human beta klotho / human FGFR1c …; test: cell-based or functional assay; remark: listed apart in the source
[4] = target: T2, mouse-human KLB chimeric protein (mouse KLB (M1-F506)-human KLB (S509-S1044)) on cells (mouse/human chimera, UniProt Q86Z14 1-1044 (human entry)); test: FACS on transfected Expi293 cells
T2 construct: also called Mouse-Human chimeric KLB; chMoHu
Procedure: (§1) Studies were performed in order to localize the binding site on human KLB of anti-beta klotho antibodies in the 5H23 epitope bin, including 5H23 as described in Example 3, with sequences shown in Tables 1-10 and FIGS. 1-3, and human anti-beta klotho antibodies in the 5H23 epitope bin, such as humanized 5H23 antibodies (e.g., VH SEQ ID NO: 271 and VL SEQ ID NO: 276). For example, FACS-based binding assays for domain mapping were performed on Expi293 cells (Life Technologies, A14635) that were transiently transfected with plasmids encoding variants of KLB: human, mouse, cynomolgus, a chimeric version in which the KL1 domain sequence of mouse KLB (M1-F506) replaces the KL1 domain of human KLB (M1-F508) to create mouse-human KLB (SEQ ID NO: 376), and a second chimera in which the human KL1 sequence (M1-F508) replaces the KL1 domain of mouse KLB (M1-F506) to create human-mouse KLB (SEQ ID NO: 374). Additionally, the expression vector pYD7 harboring no KLB sequence was transfected as a negative control.
(§2) In some studies, binding of a purified sample of a humanized 5H23 antibody (e.g., VH SEQ ID NO: 271 and VL SEQ ID NO: 276) to KLB variants was determined by FACS analysis. […] After washing with PBS/1% BSA/0.1% azide, transfected cells were then co-incubated with labeled anti-human Fc (Jackson lmmunoresearch) for 30 minutes at 4° C. After washing with PBS/1% BSA/0.1% azide, cells were acquired on flow cytometer (FACS Calibur) and analyzed by cytometric software (FlowJo). To display the resulting data, graphs plotting the number of cells as a function of fluorescence intensity were generated, and the median fluorescence intensity (MFI) was determined for each sample as shown in Table 30.

[5] = target: T3, mouse beta klotho expressed on cells (mouse (Mus musculus), UniProt Q99N32 1-1043); test: FACS on transfected Expi293 cells, antibody 1 µg/ml, labelled anti-human Fc
T3 construct: also called Mouse KLB
T3 sequence: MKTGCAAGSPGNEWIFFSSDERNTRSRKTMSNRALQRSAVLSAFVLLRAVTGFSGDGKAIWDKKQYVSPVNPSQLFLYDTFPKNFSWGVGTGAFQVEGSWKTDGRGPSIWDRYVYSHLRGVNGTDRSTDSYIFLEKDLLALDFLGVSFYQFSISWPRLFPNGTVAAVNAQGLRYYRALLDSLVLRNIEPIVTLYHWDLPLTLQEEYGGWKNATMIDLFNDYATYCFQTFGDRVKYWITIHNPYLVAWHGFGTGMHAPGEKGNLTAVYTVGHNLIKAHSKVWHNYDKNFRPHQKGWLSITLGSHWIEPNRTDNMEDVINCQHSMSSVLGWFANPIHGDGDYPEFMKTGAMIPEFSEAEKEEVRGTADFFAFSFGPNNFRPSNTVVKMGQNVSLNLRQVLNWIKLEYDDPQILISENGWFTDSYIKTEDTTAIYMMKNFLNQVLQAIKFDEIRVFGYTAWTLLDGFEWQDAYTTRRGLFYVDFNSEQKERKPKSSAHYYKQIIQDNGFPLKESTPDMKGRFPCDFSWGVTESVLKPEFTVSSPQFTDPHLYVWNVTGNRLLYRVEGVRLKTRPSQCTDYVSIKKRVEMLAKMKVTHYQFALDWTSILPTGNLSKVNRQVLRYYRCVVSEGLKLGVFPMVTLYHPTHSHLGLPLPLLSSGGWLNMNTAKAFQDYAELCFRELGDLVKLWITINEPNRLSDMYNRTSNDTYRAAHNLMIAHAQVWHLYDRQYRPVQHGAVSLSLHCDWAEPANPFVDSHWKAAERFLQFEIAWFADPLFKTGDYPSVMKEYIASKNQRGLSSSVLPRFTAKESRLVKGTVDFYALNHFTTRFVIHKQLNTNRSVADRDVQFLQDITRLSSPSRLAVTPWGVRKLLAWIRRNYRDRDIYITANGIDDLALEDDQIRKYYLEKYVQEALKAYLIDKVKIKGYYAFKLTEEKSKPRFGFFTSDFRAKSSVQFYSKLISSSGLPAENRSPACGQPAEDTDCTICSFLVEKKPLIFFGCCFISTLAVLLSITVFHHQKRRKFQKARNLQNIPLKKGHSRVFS
Procedure: as §1, §2

[6] = target: T2, mouse-human KLB chimeric protein (mouse …); test: as above
Procedure: as §1, §2

cynomolgus beta klotho / human FGFR1c receptor complex on cells (cynomolgus monkey (Macaca …)), sequence (chain, as listed by the source limits assumed, chain 1 of 2): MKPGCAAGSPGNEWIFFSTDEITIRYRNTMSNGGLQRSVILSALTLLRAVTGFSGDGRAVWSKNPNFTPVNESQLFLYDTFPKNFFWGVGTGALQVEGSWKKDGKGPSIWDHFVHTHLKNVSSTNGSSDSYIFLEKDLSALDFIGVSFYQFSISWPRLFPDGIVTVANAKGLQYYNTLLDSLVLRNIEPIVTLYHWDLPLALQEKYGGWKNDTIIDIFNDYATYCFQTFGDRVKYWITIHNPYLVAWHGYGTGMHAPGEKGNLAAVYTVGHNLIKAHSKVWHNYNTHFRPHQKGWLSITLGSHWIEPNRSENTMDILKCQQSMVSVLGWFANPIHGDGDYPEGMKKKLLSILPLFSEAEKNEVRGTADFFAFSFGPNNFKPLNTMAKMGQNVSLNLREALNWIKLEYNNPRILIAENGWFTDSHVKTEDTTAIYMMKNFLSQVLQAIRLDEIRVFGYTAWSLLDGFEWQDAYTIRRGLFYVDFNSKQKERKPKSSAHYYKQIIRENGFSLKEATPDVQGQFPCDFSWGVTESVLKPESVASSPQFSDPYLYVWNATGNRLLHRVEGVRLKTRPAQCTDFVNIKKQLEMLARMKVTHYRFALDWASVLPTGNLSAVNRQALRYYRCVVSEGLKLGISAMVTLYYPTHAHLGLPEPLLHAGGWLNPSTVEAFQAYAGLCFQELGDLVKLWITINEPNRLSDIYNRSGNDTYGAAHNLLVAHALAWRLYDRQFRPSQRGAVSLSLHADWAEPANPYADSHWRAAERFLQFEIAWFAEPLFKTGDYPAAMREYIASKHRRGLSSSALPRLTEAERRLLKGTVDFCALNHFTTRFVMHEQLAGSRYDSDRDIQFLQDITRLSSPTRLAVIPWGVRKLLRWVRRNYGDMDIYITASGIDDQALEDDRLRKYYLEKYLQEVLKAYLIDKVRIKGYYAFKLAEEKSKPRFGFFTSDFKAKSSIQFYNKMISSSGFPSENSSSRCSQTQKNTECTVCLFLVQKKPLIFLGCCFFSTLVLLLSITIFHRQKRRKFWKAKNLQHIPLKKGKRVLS
cynomolgus beta klotho / human FGFR1c receptor complex on cells (cynomolgus monkey (Macaca …)), sequence (chain, as listed by the source limits assumed, chain 2 of 2): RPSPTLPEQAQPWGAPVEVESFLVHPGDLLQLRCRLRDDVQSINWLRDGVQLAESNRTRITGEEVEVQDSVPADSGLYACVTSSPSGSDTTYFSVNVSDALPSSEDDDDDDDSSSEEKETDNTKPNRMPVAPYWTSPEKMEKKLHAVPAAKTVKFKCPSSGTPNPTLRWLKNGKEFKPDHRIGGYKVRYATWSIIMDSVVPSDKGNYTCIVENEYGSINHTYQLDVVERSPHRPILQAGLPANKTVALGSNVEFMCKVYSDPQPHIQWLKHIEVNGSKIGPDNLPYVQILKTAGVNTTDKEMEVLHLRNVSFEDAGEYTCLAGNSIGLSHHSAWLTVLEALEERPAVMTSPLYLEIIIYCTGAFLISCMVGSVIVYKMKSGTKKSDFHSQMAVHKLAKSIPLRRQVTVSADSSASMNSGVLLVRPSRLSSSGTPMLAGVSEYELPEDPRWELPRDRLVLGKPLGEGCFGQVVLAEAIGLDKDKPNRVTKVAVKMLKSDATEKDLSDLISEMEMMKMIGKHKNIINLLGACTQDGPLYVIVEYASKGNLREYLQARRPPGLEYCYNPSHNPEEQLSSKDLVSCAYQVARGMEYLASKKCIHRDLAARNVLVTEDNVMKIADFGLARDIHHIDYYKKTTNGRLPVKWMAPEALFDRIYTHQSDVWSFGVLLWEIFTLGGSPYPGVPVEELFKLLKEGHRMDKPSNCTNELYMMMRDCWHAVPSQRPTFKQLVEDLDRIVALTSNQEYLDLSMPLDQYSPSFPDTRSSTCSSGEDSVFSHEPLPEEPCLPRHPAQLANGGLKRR
T1 sequence (Q86Z14 whole entry, chain 1 of 2): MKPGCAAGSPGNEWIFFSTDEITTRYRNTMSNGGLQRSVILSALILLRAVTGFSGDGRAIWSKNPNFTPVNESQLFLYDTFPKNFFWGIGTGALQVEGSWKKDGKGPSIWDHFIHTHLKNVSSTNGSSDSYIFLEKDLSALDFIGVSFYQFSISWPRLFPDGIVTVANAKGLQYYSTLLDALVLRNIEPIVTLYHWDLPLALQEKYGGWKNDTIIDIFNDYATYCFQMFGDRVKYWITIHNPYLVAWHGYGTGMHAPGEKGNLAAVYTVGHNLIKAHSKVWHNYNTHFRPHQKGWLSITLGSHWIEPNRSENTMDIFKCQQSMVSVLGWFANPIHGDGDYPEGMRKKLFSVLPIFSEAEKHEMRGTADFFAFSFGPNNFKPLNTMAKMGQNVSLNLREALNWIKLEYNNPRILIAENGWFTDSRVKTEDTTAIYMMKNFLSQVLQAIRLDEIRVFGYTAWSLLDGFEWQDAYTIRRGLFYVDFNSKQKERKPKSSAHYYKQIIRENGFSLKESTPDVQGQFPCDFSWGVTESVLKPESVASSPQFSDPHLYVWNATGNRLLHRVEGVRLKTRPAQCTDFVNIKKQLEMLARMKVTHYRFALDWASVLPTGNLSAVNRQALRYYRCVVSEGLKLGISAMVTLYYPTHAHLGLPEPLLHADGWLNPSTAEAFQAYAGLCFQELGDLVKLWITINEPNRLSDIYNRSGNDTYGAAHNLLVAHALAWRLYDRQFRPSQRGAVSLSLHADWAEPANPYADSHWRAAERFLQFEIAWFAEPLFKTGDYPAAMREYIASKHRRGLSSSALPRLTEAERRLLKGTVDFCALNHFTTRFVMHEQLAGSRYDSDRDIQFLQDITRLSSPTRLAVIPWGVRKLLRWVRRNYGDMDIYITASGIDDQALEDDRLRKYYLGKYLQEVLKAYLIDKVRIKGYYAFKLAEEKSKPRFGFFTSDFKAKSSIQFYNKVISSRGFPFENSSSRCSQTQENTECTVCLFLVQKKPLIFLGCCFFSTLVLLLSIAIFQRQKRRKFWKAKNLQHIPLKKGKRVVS
T1 sequence (P11362 22-822 limits assumed, chain 2 of 2): as the sequence (chain, as listed by the source limits assumed, chain 2 of 2) above

HEK293 huKLB/R1c reporter assay EC50, Experiment - A [1]: 0.0453 nM | HEK293 huKLB/R1c reporter assay EC50, Experiment - B [1]: 0.0279 nM | HEK293 cynoKLB/R1c reporter assay EC50, Experiment - A [2]: 0.108 nM and 0.178 nM | HEK293 cynoKLB/R1c reporter assay EC50, Experiment - B [2]: 0.227 nM | EC50-adipocyte [3]: 3.4 nM | EC50 reporter assay [3]: 0.2 nM and 0.54 nM | binding result [4]: no binding (tested: 1 µg/ml) | Mean Fluorescence intensity [5]: 10.6 MFI | Mean Fluorescence intensity [6]: 5.6 MFI
B1: Control mAb comprising SEQ ID NO: 358 and SEQ ID NO: 360 (antibody, human IgG2, lambda, V domains shown)
VH: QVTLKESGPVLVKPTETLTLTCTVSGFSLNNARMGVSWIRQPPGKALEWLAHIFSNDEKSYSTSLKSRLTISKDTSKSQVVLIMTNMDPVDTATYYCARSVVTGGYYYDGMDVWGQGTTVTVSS
VL: SYVLTQPPSVSVAPGQTARITCGGNNIGSESVHWYQQKPGQAPVLVVYDDSDRPSGIPERFSGSNSGNTATLTISRVEAGDEADYYCQVWDGNSDHVVFGGGTKLTVLG
notes: also called Control antibody
